Changes are numbered by the printed parent chain. Each block holds one binder with its values, some of them ahead of it.
Columns and labels:
cynomolgus 5T4 [1] = molecular target: T1, cynomolgus 5T4 (Macaca mulatta (cynomolgus)); test: flow cytometry, CHO cells with cynomolgus 5T4 against CHO cells with human 5T4
T1 construct: whole, on cells; stably transfected CHO cells; also called cyno5T4; cy5T4
Experimental: (§1) The potency of 5T4 antibodies in binding to cynomolgus 5T4 was determined by flow cytometry. CHO cells were stably transfected with […] (cynomolgus) 5T4. […] Samples were analysed either on a FACSCalibur or a FACSverse (BD Biosciences, Heidelberg, Germany) and mean fluorescence intensity (MFI) determined. […] To compare the EC50 values between human and cynomolgus 5T4, the cy5T4/hu5T4 ratio was calculated from the experiment with the full dose-response.

[2] = molecular target: T2, human/mouse 5T4 chimera E6; test: flow cytometry, cells with 5T4 chimera; % positive cells over that of the best clone
T2 construct: on stably transfected CHO cells
Experimental: (§2) Epitope mapping was performed by investigation of loss of binding by the antibodies using a panel of human/mouse chimeric 5T4 constructs by flow cytometry. […] Two strategies were used for the epitope mapping as illustrated in FIG. 5. In one approach, seven human/mouse 5T4 chimeras were constructed based on dividing 5T4 into seven different domains (FIG. 5). By replacing each domain with the corresponding mouse sequence seven human/mouse 7 5T4 human/mouse chimeras were generated. The chimeras were generated using the human protein 5T4 sequence NP_006661.1 (reference mRNA sequence NM_006670.4) and the corresponding mouse sequence NP_035757.2 (reference mRNA sequence NM_011627.4). The human/mouse chimeric DNA constructs, as well as human and mouse wild-type 5T4, were cloned into pcDNA3.1 expression vectors. […] In the other approach, cells transfected with a human/mouse 5T4 chimera (Woods et al., 2002) was used, in which mouse sequence in amino acid 173-420 replaced the human sequence (FIG. 5). As controls human 5T4 and mouse 5T4-transfected cells were used.
(§3) For flow cytometric analysis, cells were stained with different 5T4 antibodies diluted in FACS buffer (PBS, 0.5% BSA). […] Samples were analysed by FACSverse (BD Biosciences, Heidelberg, Germany) and % positive cells were determined. To compensate for variations in % 5T4 positive cells in the various transfected populations, binding levels were normalized within each chimera by dividing % positive cells for each clone with % positive cells for the clones resulting in the highest % positive cells (% pos cellsclonX/% positive cellsₘₐₓ). A normalized value≤0.75 was defined as mAb binding being dependent on the replaced region, whereas a normalized value≤0.25 was defined as complete dependence.

[3] = molecular target: T3, human/mouse 5T4 chimera E1; test: as above
T3 construct: on stably transfected CHO cells
Experimental: as §2, §3

[4] = molecular target: T4, human/mouse 5T4 chimera E2; test: as above
T4 construct: on stably transfected CHO cells
Experimental: as §2, §3

[5] = molecular target: T5, human/mouse 5T4 chimera E7; test: as above
T5 construct: on stably transfected CHO cells
Experimental: as §2, §3

[6] = molecular target: T6, human/mouse 5T4 chimera E3; test: as above
T6 construct: on stably transfected CHO cells
Experimental: as §2, §3

[7] = molecular target: T7, human/mouse 5T4 chimera E4; test: as above
T7 construct: on stably transfected CHO cells
Experimental: as §2, §3

[8] = molecular target: T8, human/mouse 5T4 chimera E5; test: as above
T8 construct: on stably transfected CHO cells
Experimental: as §2, §3

cynomolgus 5T4 [9] = molecular target: T1, cynomolgus 5T4; test: flow cytometry, CHO cells transfected with cynomolgus 5T4
Experimental: as §1

[10] = molecular target: T9, human 5T4 on transfected cells (human, UniProt Q13641 32-420); test: flow cytometry, 5T4-transfected A9 cells
T9 construct: whole, on cells; for B16 and A9 cells only a 5T4 construct is named; also called 5T4-transfected B16 cells; B16-5T4
T9 sequence (looked up): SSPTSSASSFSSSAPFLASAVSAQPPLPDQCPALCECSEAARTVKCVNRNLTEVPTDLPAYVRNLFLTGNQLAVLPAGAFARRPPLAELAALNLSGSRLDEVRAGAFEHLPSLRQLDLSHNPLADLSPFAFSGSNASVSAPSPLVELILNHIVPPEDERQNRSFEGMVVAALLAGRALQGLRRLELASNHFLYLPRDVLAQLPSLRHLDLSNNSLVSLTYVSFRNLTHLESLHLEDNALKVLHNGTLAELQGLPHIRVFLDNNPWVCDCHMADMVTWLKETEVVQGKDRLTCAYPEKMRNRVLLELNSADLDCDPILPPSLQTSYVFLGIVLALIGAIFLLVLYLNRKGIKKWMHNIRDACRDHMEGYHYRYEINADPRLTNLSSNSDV
Experimental: (§4) Analysis of 5T4 mAb binding with flow cytometry was performed using 5T4-transfected cell lines and as negative control, mock transfected cells. Three different transfected cell lines used were used for this study; B16, A9 and CHO, transfected either with a 5T4 construct or with an empty vector control construct. Cells were stained with 5T4 antibodies diluted in FACS buffer (PBS, 0.5% BSA and 0.02% NaN₃). […] Samples were analysed either on a FACSCalibur or a FACSverse (BD Biosciences, Heidelberg, Germany) and mean fluorescence intensity (MFI) determined.

[11] = molecular target: T9, human 5T4 on transfected cells; test: flow cytometry, 5T4-transfected B16 cells
Experimental: as §4

[12] = molecular target: T10, 5T4 (immobilised for SPR) (UniProt Q13641 32-355, limits assumed, biotinylated on the MASS-1 platform); test: SPR MASS-1, biotinylated 5T4 on streptavidin chip, mAb injected, 1:1 Langmuir
T10 construct: also called biotinylated 5T4
T10 sequence (looked up): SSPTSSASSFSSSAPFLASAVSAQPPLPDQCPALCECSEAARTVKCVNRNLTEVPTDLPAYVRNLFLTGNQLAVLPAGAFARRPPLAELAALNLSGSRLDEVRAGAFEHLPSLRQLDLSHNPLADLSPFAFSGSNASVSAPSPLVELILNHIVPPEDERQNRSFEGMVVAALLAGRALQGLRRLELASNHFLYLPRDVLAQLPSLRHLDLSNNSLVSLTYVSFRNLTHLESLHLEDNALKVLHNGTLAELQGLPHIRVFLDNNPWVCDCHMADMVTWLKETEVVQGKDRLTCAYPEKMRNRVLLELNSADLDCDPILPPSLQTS
Experimental: Binding kinetics of the 5T4-specific mAbs have been studied using two different SPR-based platforms, the Biacore 3000 (GE Healthcare) and the MASS-1 platform (Sierra Sensors). Briefly, 5T4 was captured at the sensor chip surface either via direct amine coupling (Biacore platform) or using a streptavidin coated chip and biotinylated 5T4 (MASS-1 platform). The different 5T4-specific mAbs were then injected over the chip in increasing concentrations and the association and dissociation rates studied in real time. A 1:1 Langmuir model was used for curve fitting.

Ratio EC50cyno-5T4/h5T4 (cynomolgus 5T4 [1]): 0.9 ratio | normalized % positive cells [2]: 0.89 | normalized % positive cells [3]: 0.99 | normalized % positive cells [4]: 0.02 | normalized % positive cells [5]: 0.96 | normalized % positive cells [6]: 0.9 | normalized % positive cells [7]: 0.69 | normalized % positive cells [8]: 0.89 | EC50 (cynomolgus 5T4 [9]): 0.7 nM | Normalized EC50 (to 1628) [10]: 1.8 ratio to 1628 | EC50 [11]: 0.8 nM | Normalized EC50 (to 1628) [11]: 1.6 ratio to 1628 | koff [12]: 0.00019 s⁻¹ | kon [12]: 510000 M⁻¹ s⁻¹
B1: 1210/1211 (antibody, IgG1, V domains shown)
VH: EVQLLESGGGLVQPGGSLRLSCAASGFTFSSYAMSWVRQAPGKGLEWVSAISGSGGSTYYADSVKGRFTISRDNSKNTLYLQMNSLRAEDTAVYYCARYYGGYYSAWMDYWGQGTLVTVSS
VL: DIQMTQSPSSLSASVGDRVTITCRASQSISSYLNWYQQKPGKAPKLLIYAASSLQSGVPSRFSGSGSGTDFTLTISSLQPEDFATYYCQQTYGYLHTFGQGTKLEIK
notes: 5T4 antibody

Ratio EC50cyno-5T4/h5T4 (cynomolgus 5T4 [1]): 3 ratio | normalized % positive cells [2]: 0.94 | normalized % positive cells [3]: 0.96 | normalized % positive cells [4]: 0.74 | normalized % positive cells [5]: 0.94 | normalized % positive cells [6]: 0.25 | normalized % positive cells [7]: 0.52 | normalized % positive cells [8]: 0.9 | EC50 (cynomolgus 5T4 [9]): 1.53 nM | Normalized EC50 (to 1628) [10]: 2.9 ratio to 1628 | EC50 [11]: 1.8 nM | Normalized EC50 (to 1628) [11]: 3.9 ratio to 1628 | koff [12]: 0.00013 s⁻¹ | kon [12]: 1.4e+06 M⁻¹ s⁻¹
B2: 1206/1207 (antibody, V domains shown)
VH: EVQLLESGGGLVQPGGSLRLSCAASGFTFSGSSMSWVRQAPGKGLEWVSSIYYSGSGTYYADSVKGRFTISRDNSKNTLYLQMNSLRAEDTAVYYCARYGRNVHPYNLDYWGQGTLVTVSS
VL: B1 VL with T91G, G93Y, H96P
notes: 5T4 antibody

Reference: US20190161555A1 (ALLIGATOR BIOSCIENCE, published 2019)
